Measurements from US9029508 (dated 2015).

B1: DVD516 DLL4 arm (antibody, V domains shown)
VH: EVQLQQSGPELEKPGASVKISCKASGYSFTGYNMNWVKQSNGKSLEWIGNIDPYFGGTNYNQKFKGKATLTVDKSSSTAYMQLKSLTSEDSAVYYCARNYDYDGGCFDYWGQGTTLTVSS
VL: QAVVTQESALTTSPGETVTLTCRSSTGAVTTSNYANWVQEKPDHLFTGLIGGTNNRAPGVPARFSGSLIGDKAALTITGAQTEDEAIYFCALWYSNHWVFGGGTKLTVLG
modifications: DVD-Ig inner
B2: DVD501 DLL4 arm (antibody, V domains shown)
VH: EVQLQQSGPELVKPGASVKMSCKASGYTFTSYVINWVKQKPGQGLEWIGLINPYNDGTKYNEKFKVKATLTSDKSSSTAYMELSSLTSEDSAVYYCASYYYGSRYYFDYWGQGTTLTVSS
VL: DIQMTQSSSYLSVSLGGRVTITCKASDHINNWLAWYQQKPGNAPRLLISGATSLETGVPSRFSGSGSGKDYTLSITSLQTEDVATYYCQQYWSIPLTFGAGTKLELKR
modifications: DVD-Ig outer
B3: DVD450 DLL4 arm (antibody, V domains shown)
VH: QVQLVQSGAEVKKPGASVKISCKASGYSFTAYYIHWVKQAPGQGLEWIGYISSYNGATNYNQKFKGRVTFTTDTSTSTAYMELRSLRSDDTAVYYCARDYDYDVGMDYWGQGTLVTVSS
VL: DIVMTQSPDSLAVSLGERATISCRASESVDNYGISFMKWFQQKPGQPPKLLIYAASNQGSGVPDRFSGSGSGTDFTLTISSLQAEDVAVYYCQQSKEVPWTFGGGTKVEIKR
modifications: DVD-Ig inner
B4: DVD492 DLL4 arm (antibody, V domains shown)
VH: B2 VH
VL: B2 VL
modifications: DVD-Ig inner
B5: DVD476 DLL4 arm (antibody)
chain 1: EVQLVESGGGLVQPGGSLRLSCAASGFTFTDNWISWVRQAPGKGLEWVGYISPNSGFTYYADSVKGRFTISADTSKNTAYLQMNSLRAEDTAVYYCARDNFGGYFDYWGQGTLVTVSS
chain 2: DIQMTQSPSSLSASVGDRVTITCRASQDVSTAVAWYQQKPGKAPKLLIYSASFLYSGVPSRFSGSGSGTDFTLTISSLQPEDFATTYYCQQSYTGTVTFGQGTKVEIKR
modifications: DVD-Ig inner
B6: DVD502 DLL4 arm (antibody, V domains shown)
VH: B2 VH
VL: B2 VL
modifications: DVD-Ig inner
B7: DVD443 DLL4 arm (antibody, V domains shown)
VH: B3 VH
VL: B3 VL
modifications: DVD-Ig outer
B8: DVD517 DLL4 arm (antibody, V domains shown)
VH: B1 VH
VL: B1 VL
modifications: DVD-Ig outer
B9: DVD503 DLL4 arm (antibody, V domains shown)
VH: B2 VH
VL: B2 VL
modifications: DVD-Ig outer
B10: DVD481 DLL4 arm (antibody)
chain 1: B5 chain 1
chain 2: B5 chain 2
modifications: DVD-Ig outer
B11: DVD506 DLL4 arm (antibody, V domains shown)
VH: B2 VH
VL: B2 VL
modifications: DVD-Ig inner
B12: DVD496 DLL4 arm (antibody, V domains shown)
VH: B2 VH
VL: B2 VL
modifications: DVD-Ig inner
B13: DVD530 DLL4 arm (antibody, V domains shown)
VH: B1 VH
VL: B1 VL
modifications: DVD-Ig inner
B14: DVD494 DLL4 arm (antibody, V domains shown)
VH: B2 VH
VL: B2 VL
modifications: DVD-Ig inner
B15: DVD528 DLL4 arm (antibody, V domains shown)
VH: B1 VH
VL: B1 VL
modifications: DVD-Ig inner
B16: DVD518 DLL4 arm (antibody, V domains shown)
VH: B1 VH
VL: B1 VL
modifications: DVD-Ig inner
B17: DVD531 DLL4 arm (antibody, V domains shown)
VH: B1 VH
VL: B1 VL
modifications: DVD-Ig outer
B18: DVD499 DLL4 arm (antibody, V domains shown)
VH: B2 VH
VL: B2 VL
modifications: DVD-Ig outer
B19: DVD447 DLL4 arm (antibody, V domains shown)
VH: B3 VH
VL: B3 VL
modifications: DVD-Ig outer
B20: DVD524 DLL4 arm (antibody, V domains shown)
VH: B1 VH
VL: B1 VL
modifications: DVD-Ig inner
B21: DVD478 DLL4 arm (antibody)
chain 1: B5 chain 1
chain 2: B5 chain 2
modifications: DVD-Ig inner
B22: DVD514 DLL4 arm (antibody, V domains shown)
VH: B1 VH
VL: B1 VL
modifications: DVD-Ig inner
B23: DVD451 DLL4 arm (antibody, V domains shown)
VH: B3 VH
VL: B3 VL
modifications: DVD-Ig outer
B24: DVD534 DLL4 arm (antibody, V domains shown)
VH: B1 VH
VL: B1 VL
modifications: DVD-Ig inner

These binders were tested against DLL4 (human, UniProt Q9NR61) (assay: ELISA).
Sequence of DLL4 (Q9NR61 27-524): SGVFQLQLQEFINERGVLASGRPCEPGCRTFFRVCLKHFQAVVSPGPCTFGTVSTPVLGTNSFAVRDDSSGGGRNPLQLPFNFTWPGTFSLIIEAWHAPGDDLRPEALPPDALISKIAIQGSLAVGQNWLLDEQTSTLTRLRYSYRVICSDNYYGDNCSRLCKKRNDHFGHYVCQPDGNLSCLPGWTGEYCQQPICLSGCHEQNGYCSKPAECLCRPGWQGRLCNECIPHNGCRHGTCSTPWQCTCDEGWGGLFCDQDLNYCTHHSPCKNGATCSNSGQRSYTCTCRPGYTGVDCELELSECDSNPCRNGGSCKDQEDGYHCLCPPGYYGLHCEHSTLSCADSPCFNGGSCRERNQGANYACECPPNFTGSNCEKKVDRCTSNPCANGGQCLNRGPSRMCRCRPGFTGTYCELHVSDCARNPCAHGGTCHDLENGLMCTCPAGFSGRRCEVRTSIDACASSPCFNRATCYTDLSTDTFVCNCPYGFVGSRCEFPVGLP

Row | Binder | EC50
1 | B1 | 4.33 nM
2 | B2 | 0.18 nM
3 | B3 | 1.99 nM
4 | B4 | 1.77 nM
5 | B5 | 0.3 nM
6 | B6 | 3.17 nM
7 | B7 | 0.2 nM
8 | B8 | 0.1 nM
9 | B9 | 0.33 nM
10 | B10 | 3.3 nM
11 | B11 | 0.32 nM
12 | B12 | 5.59 nM
13 | B13 | 0.22 nM
14 | B14 | 39.5 nM
15 | B15 | 0.81 nM
16 | B16 | 5.9 nM
17 | B17 | 0.57 nM
18 | B18 | 0.09 nM
19 | B19 | 0.12 nM
20 | B20 | 0.22 nM
21 | B21 | 2.53 nM
22 | B22 | 21.1 nM
23 | B23 | 0.4 nM
24 | B24 | 0.47 nM
